Test system: en-10C-R4 (engrailed homeodomain-ligase 10C-tetra-arginine) (artificial fusion)
Assay: fluorescence anisotropy
Conditions: 20 mM HEPES pH 7.5, 150 mM NaCl, 100 uM 2-mercaptoethanol, 120 uM ZnCl2, 100 ug/ml BSA, 24 C, 90 min

GUUCAGAGUUCUACAGUCACUAACGUUCGGGGAACCCAGGUGUUGGUCUUUGACGUAGAGUAUAAGA / TGGGTTCCCCGAACGT [RNA/DNA duplex (ligated product RNA + FAM-DNA splint #2)]
Kd: 460 nM
